{
  "source": "patent US20030119716A1",
  "about": "“Methods for screening, treating and diagnosing G-protein coupled receptor-related disorders and compositions thereof” (Wyeth, priority 2001, published 2003)",
  "key": {"Gαi1": {"target": "Gαi1", "experiment": "cell-based or functional assay"}, "Gαq/i chimera": {"target": "Gαq/i chimera", "experiment": "cell-based or functional assay"}},
  "data": [
    {"binder": "human RGS2 (protein, UniProt P41220 1-211, looked up) MQSAMFLAVQHDCRPMDKSAGSGHKSEEKREKMKRTLLKDWKTRLSYFLQNSSTPGKPKTGKKSKQQAFIKPSPEEAQLWSEAFDELLASKYGLAAFRAFLKSEFCEENIEFWLACEDFKKTKSPQKLSSKARKIYTDFIEKEAPKEINIDFQTKTLIAQNIQEATSGCFTTAQKRVYSLMENNSYPRFLESEFYQDLCKKPQITTEPHAT", "values": [
      {"measurement": "attenuation of SRE activation (SRE-luciferase reporter, CHO-D2R cells co-transfected with Gαi1)", "setting": "Gαi1", "result": "25 to 30", "unit": "%"},
      {"measurement": "reduction in SRE activation (SRE-luciferase reporter, CHO-D2R cells)", "setting": "Gαq/i chimera", "result": 70, "unit": "%"}
    ]}
  ]
}
